# From publication PMC4780735
# B1: BaeS sensory kinase tagged with monomeric yellow fluorescent protein (BaeS-mYFP) [E. coli] / itself (parent)
# chain: MKFWRPGITGKLFLAIFATCIVLLISMHWAVRISFERGFIDYIKHGNEQRLQLLSDALGEQYAQHGNWRFLRNNDRFVFQILRSFEHDNSEDKPGPGMPPHGWRTQFWVVDQNNKVLVGPRAPIPPDGTRRPILVNGAEVGAVIASPVERLTRNTDINFDKQQRQTSWLIVALATLLAALATFLLARGLLAPVKRLVDGTHKLAAGDFTTRVTPTSEDELGKLAQDFNQLASTLEKNQQMRRDFMADISHELRTPLAVLRGELEAIQDGVRKFTPETVASLQAEVGTLTKLVDDLHQLSMSDEGALAYQKAPVDLIPLLEVAGGAFRERFASRGLKLQFSLPDSITVFGDRDRLMQLFNNLLENSLRYTDSGGSLQISAGQRDKTVRLTFADSAPGVSDDQLQKLFERFYRTEGSRNRASGGSGLGLAICLNIVEAHNGRIIAAHSPFGGVSITVELPLERDLQREV
# Variants of: B1
# Assay: fluorescence anisotropy (homo-FRET) on cells
# Details: with itself; ΔbaeS cells; Copper (10 μM) added at about 45 sec; plateau read at about 200-300 sec, before EDTA (100 μM); parent: 0.79; read off a plot
row,response [r/r0],Variant
1,0.95,chain 1 H45A H65A H87A H101A
